# Reference: patent US20090227777A1
# B1: soluble single chain variable fragment scFv-E tag derived from 4D31G111B7 (scFv)
# scFv: AAQPAEVMLVESGASVKISCKASGYSFTGYYMHWVKQSHVKTLEWVGRITPYNGATNYNQNFKDKASLTVDKSSSTAYMEFHSLTSEDSAVYYCVRMYADVWGAGTSVTVSSVKTTPPSVYPLAPGGGGSGGGGSGGGGSEIVLTQSPSSLSASLGESVTLACRGASQDIGGRLNWLQQEADGTIKRLIYATSSLDSGVPKRFSGSRSGSDYSLTISSLESEDFVDYYCLQYDRSPYTFGGGTKLEIKRGDAAPTVAA
# Target: ovalbumin-hippuric acid conjugate (OVA-HA) (UniProt P01012)
# Experiment: indirect ELISA on hippuric acid antigen, purified soluble scFv-E tag at 10-fold dilution, rabbit anti-E tag and goat anti-rabbit IgG-HRP detection
# Sequence of UniProt P01012 (P01012 2-386 limits assumed): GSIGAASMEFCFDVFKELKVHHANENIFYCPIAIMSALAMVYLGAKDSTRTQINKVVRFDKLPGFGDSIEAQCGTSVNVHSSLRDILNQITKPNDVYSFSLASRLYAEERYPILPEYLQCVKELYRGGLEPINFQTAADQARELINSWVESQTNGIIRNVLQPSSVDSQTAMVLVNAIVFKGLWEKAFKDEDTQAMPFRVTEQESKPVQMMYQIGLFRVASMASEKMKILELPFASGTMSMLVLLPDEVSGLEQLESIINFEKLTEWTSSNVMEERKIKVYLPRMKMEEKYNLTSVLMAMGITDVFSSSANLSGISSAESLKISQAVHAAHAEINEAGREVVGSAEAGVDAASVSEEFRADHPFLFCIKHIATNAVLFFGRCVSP
binder,measurement,value
B1,antibody titer,0.516
